From article PMC8998802

Molecular target: CaVβ2a residues 203 to 425, His-tagged
Experiment: MST

Row | Substance | Kd [µM]
1 | AID-CaV2.1 peptide | 0.0183 to 0.093
2 | AID-CaV2.2 peptide | 0.012 to 0.208
